Assay results reported in the supplement of paper PMC9170038.

What was measured:
MS2 coat protein [1] = assay: apparent KD of MS2 coat protein, switch OFF state (with FMN for OFF switches, without FMN for ON switches); designed switch direction (-1 OFF switch, 1 ON switch): -1; higher = weaker reporter binding; conditions: FMN input: 0 or 200 uM; Eterna round: R93 (includes R88 designs)
Procedure, shortened: (§1)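 Binding of SNAP-549-labelled MS2 coat protein was measured on designed RNA switches transcribed on-chip from Illumina sequencing clusters. The protein rose in twofold steps from 0.7 or 1.5 nM to 3 µM, with 0.8–1.5 h per step early on and 10–20 min per step later, in 100 mM Tris-HCl pH 7.5, 80 mM KCl, 4 mM MgCl2, without or with constant ligand. Each design's apparent KD is the median of fits to its normalised cluster binding curves.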

MS2 coat protein [2] = assay: apparent KD of MS2 coat protein, switch ON state; designed switch direction (-1 OFF switch, 1 ON switch): -1; higher = weaker reporter binding; conditions: FMN input: 0 or 200 uM; Eterna round: R93 (includes R88 designs)
Procedure, shortened: as §1

| Sequence | apparent KD of MS2 coat protein (MS2 coat protein [1]) [nM] | apparent KD of MS2 coat protein (MS2 coat protein [2]) [nM] |
| --- | --- | --- |
| AAGAACGUAGGAUAUACAAAAUAAAAGAAAAGAAAGAAAGAACAUGAGGAUCACCCAUGUAGAAGGGCGAAGAA [Sekhemresewadjtawy Sobekhotep III] | 39.6 | 49.5 |
| AACAGGUCAGGAUAUGUGGAAAAAAUAAAAAAAAUAAAAACACAGAAGGGACAUGAGGAUCACCCAUGUCAACA [May 24] | 25.3 | 30 |
| AAAAAACAUGAGGAUCACCCAUGUGAGGAUAUGAUGCGAAUAAAGAAAGAAGAAAGCAUCAGAAGGCACAUAUG [Mod of Disincluded 3 (little more stable fmn state)] | 234 | 39.5 |
| AUAGGCCUAGGAUAUACAUGAGGAUCACCCAUGUAAACCGAUAGAUCACGGUAAACGAGUAGAAGGAGGAAUAA [JR_Exc003_Sub208] | 30.3 | 26.5 |
| GGUUGAGAAGGAUAUACAUGAGGAUCACCCAUGUGAGAGAAAAAAGUGAGAAAGAAAAGUAGAAGGUCUUGACG [salish99-ex3-63] | 95.9 | 29 |
| AAAAAGUCAGGAUAUAUCAAAAAAAAAGAAAAAAAAAAAAGAUAGAAGGGACAUGAGGAUCACCCAUGUAAAAA [water's exclusion 4 last] | 34.2 | 74.3 |
| AACAGUACAGGAUAUACAUGAGGAUCACCCAUGUGAAAAUUAAGUGGCGUACCACAAAGUAGAAGGGUACUGGA [Moding Maslow revisited (73) 3] | 86.4 | 29.4 |
| AGCUGGUUAGGAUAUACAUGAGGAUCACCCAUGUUAAAAAAAAAAAAAAGAUUAAAGUGUAGAAGGGAUUAGUA [Banishment 9 - Jieux - Exclusion 3] | 34.4 | 29.3 |
| GAAAGGGCAGGAUAUGCAGAGAGAGAGAGAGAAAAAAAAAAACAUGAGGAUCACCCAUGUAGAAGGGCCGAAAG [salish99-ex2-05] | 32.2 | 42.4 |
| CAAAGGUGAGGAUAUGCAUAACUAUGACGAAAGUCAUAAACACAUGAGGAUCACCCAUGUAGAAGGCGCCACAA [e2-3] | 57.2 | 78.8 |
| AAGAACAGAGGAUAUACAUGAGGAUCACCCAUGUAAAAGAAAGAAAGGGAAAAGAAAAGUAGAAGGCUGAAGAA [Neferkare Heqawaset Amenemnisu] | 43.4 | 32.3 |
| AAAAAACAUGAGGAUCACCCAUGUCAGGAUAUCGAAAGAAAAAAAAAGAAAGAAAAAACGAGAAGGGACAAAAA [Amethyst 29] | 33.1 | 20.1 |
| ACAAACCUAGGAUAUACAUGAGGAUCACCCAUGUACAAAGGCGUAGGCGACAAAAGAGGUAGAAGGAGGAAAGG [Disoed] | 22.9 | 21.9 |
| AGGGUACAUGAGGAUCACCCAUGUUAGGAUAUAGAAAAGAAAAGAAAAGAAAGAAGAACUAGAAGGGACAAGAA [Unas] | 41.3 | 34.8 |
| AGCUAGUCAGGAUAUACAAAAAUGACAGAAGACGUAAGGGAACAUGAGGAUCACCCAUGUAGAAGGGACUAGCA [Diamond 43] | 184 | 61.5 |
| AAGUCCAUAGGAUAUAUAUGGAUAUACAUUUAUGUAGAACUACAUGAGGAUCACCCAUGUAGAAGGAUGGAAUA [Mat - Same state - Mayanna Mod - D141] | 14.1 | 19.5 |
| CUUGUGUGAGGAUAUGUAAGAUGAAUAAGCAGUUCUAAAAGGCAGAAGGCACAUGAGGAUCACCCAUGUAAAAU [Sodirexe] | 16.1 | 61.3 |
| AAAAAGUCAGGAUAUGUCAAAGGUCACGAAAGUGACAAAGGACAGAAGGGACAUGAGGAUCACCCAUGUAGGAA [Fiskers Exclusion 4D1 65% - Late G segment 2] | 68.5 | 55.5 |
| AAAAAGUCAGGAUAUAUAGGAAAAAUAAAAAAAAUAAAACUAUAGAAGGGACAUGAGGAUCACCCAUGUUAAAA [Ex 4 May 15] | 22.9 | 45.4 |
| CAGUACUGAGGAUAUACAUGAGGAUCACCCAUGUGUUAAAGCUAGGAAACUAGCAAAUGUAGAAGGCAGUACUG [Ex3: 817] | 47.9 | 14 |

| Sequence | apparent KD of MS2 coat protein (MS2 coat protein [1]) [nM] | apparent KD of MS2 coat protein (MS2 coat protein [2]) [nM] |
| --- | --- | --- |
| GGAGGCCAAGGAUAUACAUGAGGAUCACCCAUGUGAGAGAAAAAAGUGAGAAAGAAAAGUAGAAGGUGGUUUCG [salish99-ex3-129] | 131 | 65.4 |
| AAAAAACAUGAGGAUCACCCAUGUGAGGAUAUCCAAAAGUUAAAGAAAAAGACGAAAAGGAGAAGGCGCAAAAA [Fiskers Exclusion D3] | 40.7 | 68.7 |
| AAAAAACAUGAGGAUCACCCAUGUAAGGAUAUGCUCGAAAGUGCGAAAGCACAAACGAGCAGAAGGUACAAAAA [66%, Wbt, 45] | 51.9 | 34.7 |
| AAAAGGUGAGGAUAUUCGAAAAUAAAAUAAAAUAAAAUAAAGAAGAAGGCACAUGAGGAUCACCCAUGUAAUAA [LROPPY Exclusion 4 - v02_deltaG=2.94 break up the As] | 24.9 | 25.9 |
| AACAUGUGAGGAUAUAAAAGAAAAGAAAAGAAAGAAAAGAAUUAGAAGGCACAUGAGGAUCACCCAUGUAAGAA [EteRNA is fun!] | 31.9 | 28.2 |
| AACACACAUGAGGAUCACCCAUGUAAGGAUAUGCAAGCAAGAAGAAAGAACAGAAAAAGCAGAAGGUACACACA [Amethyst 74] | 24.3 | 28.4 |
| GGGUAACAUGAGGAUCACCCAUGUGAGGAUAUCCUAGGGAUGGAAGCCAGGCCAAAAAGGAGAAGGUACUAAAG [Janelle Amethyst 18 Mod 17 - Jieux - Exclusion 1] | 72.4 | 54.2 |
| CUCAUGUGAGGAUAUGUACGAAAAAAUAAAAAAAUAAAAGUACAGAAGGCACAUGAGGAUCACCCAUGUGAAAA [EX4 398: Minimal 11] | 24.3 | 42.5 |
| AAGAAGUCAGGAUAUGUCUGUGCGAAAAAAAAAAAGUGCAGACAGAAGGGACAUGAGGAUCACCCAUGUGGAAA [Florian 65% 7] | 55.3 | 46.8 |
| AACAGUACAGGAUAUACAUGAGGAUCACCCAUGUGAGAAACCAAUGGCGUACCAUAAAGUAGAAGGGUACUGGA [Moding Maslow Revisited (73) 31] | 158 | 62.3 |
| AAAAAGGCAGGAUAUACGAGUCAAAGAAAAGACAAAAAGGGACAUGAGGAUCACCCAUGUAGAAGGGCCAAAAA [Fiskers exclusion D2 62% 4] | 193 | 51.6 |
| AAAAAGGUAGGAUAUACAUGAGGAUCACCCAUGUGAAAGAAAAAUAAGAAAAGAAAGAGUAGAAGGACCAAAAA [JL JSci Mod] | 30.6 | 31 |
| AGCUAGCUAGGAUAUACGAACAUGUCAAAAGACGUGAAGGGACAUGAGGAUCACCCAUGUAGAAGGAGCUAGCA [JL 74% mod 6] | 121 | 28.7 |
| AGUGAGUGAGGAUAUCCCUGAAGAAUAAAAGAAAUAACGAGGGAGAAGGCACAUGAGGAUCACCCAUGUACACA [May 64] | 24.8 | 30.6 |
| AAGAAGACAGGAUAUACAUGAGGAUCACCCAUGUAAAAGAAAGAGGGAAAAGAGAAAAGUAGAAGGGUCAAGAA [Ptolemy III Euergetes I] | 20.5 | 16.8 |
| AAAAAGUAAGGAUAUAGCAAAGGUCACGAAAGUGACAAAGGCUAGAAGGUACAUGAGGAUCACCCAUGUCCAAA [Fiskers Exclusion 4 D2 63% 3] | 17.7 | 19.9 |
| CUCAAGUUAGGAUAUGUAAGAAAAGAAGAGAAAGAAAAGAAACAGAAGGAACAUGAGGAUCACCCAUGUAAGAA [EteRNA is fun!] | 24.1 | 22.1 |
| AAAAAUGGAGGAUAUACAUGAGGAUCACCCAUGUGUAACUAAACAAAACACAAAAAAAGUAGAAGGCCAAAAAA [Gilly Gone Silly 6 - Jieux - Exclusion 3] | 17.1 | 14.5 |
| AAAAAGGGAGGAUAUACAUGAGGAUCACCCAUGUAAAAAAACGCGGGAGGGAGGGAAGGUAGAAGGCCCAAAAA [Excls3-IV] | 23 | 20.3 |
